Assay results as given in the DeepSol protein solubility set.

Assay: soluble on expression in E. coli; label from the status in PepcDB or PDB records

| Sequence | soluble on expression in E. coli |
| --- | --- |
| MSLRDLLLIDHPLCQAVFSRQGAQLLHFQPQGERPLLWCAGEWPALSSAPVRGGIPVCWPWFGSHPNGSEWPQQGWARQREWRLLDAYADESKVVVSWQLDLEDWHVRLDARLGQRLELELCSYHEEDDDCLFSFALQPYWRVGALSRVVVHGMELESARGQRGASRIPGTWIPRGAVKQVLYHPGSLVLEDGGWNRRLRIDKNVSAGSVIWHPGSRPVEQVEPGEAERFLCIGAAGYRPGGLILAPGERMRLSLAAGLQEGHHHHHH | not soluble |
| MSDYLSVSTLTKYLKLKFDKDPYLERVYLTGQVSNFRRRPNHQYFSLKDDKSVIQATMWSGHFKKLGFELEEGMKVNVVGRVQLYEPSGSYSIIVEKAEPDGIGALAIQFEQLKKKLSQAGYFDDRHKQLIPQFVRKIGVVTSPSGAVIRDIITTVSRRFPGVEILLFPTKVQGEGAAQEIAQTIALANEKKDLDLLIVGRGGGSIEDLWAFNEECVVEAIFESRLPVISSVGHETDTTLADFVADRRAATPTAAAELATPVTKIDILSWITERENRMYQSSLRLIRTKEERLQKSKQSVIFRQPERLYDGFLQKLDNLNQQLTYSMRDKLQTVRQKQGLLHQKLQGIDLKQRIHIYQERVVQSRRLLSSTMTSQYDSKLARFEKAQDALISLDSSRIVARGYAIIEKNHTLVSTTNGINEGDHLQVKMQDGLLEVEVKDVRQENI | not soluble |
| MSKLRFRVVETAFKKKAVEVATPAERPSEYFGKYVFNKEKMFKYLPSKVYNALIDAIDNGAPLDRSIADEVAAGMKKWAVEMGVTHYTHWFAPLTEGTAEKHDAFVEHDGKGGMMEEFTGKLLVQQEPDASSFPNGGIRNTFEARGYSAWDPSSPAFIVDDTLCIPTVFIAYTGEALDYKAPLLKALRAVDKAATAVCHYFNPEVKKVVAYLGWEQEYFLVDEGLYAARPDLLMTGRTLMGHDSAKNQQLEDHYFGAIPTRVAAFMKDLEIEALKLGIPVKTRHNEVAPNQFELAPIFEECNLANDHNLLIMSLMRKVSRRHGFRVLLHEKPFKGVNGSGKHNNWSLGTDTGILLMGPGKTPEDNLRFVTFVVNTLMAVYRHNGLLKASISSATNAHRLGANEAPPAIISSFLGKQLSQVLDHIENSTKDDLINLSGKQGMKLDIPQIPELLIDNTDRNRTSPFAFTGNRFEFRAVGSEANCASAMIALNAAVAEQLMKFKKDVDALIEKGEPKVSAILEVIRGYIKECKAIHFDGNGYSDEWKVEAARRGLDCETSVPVIFDNYLKPETIAMFEAIGVMTKKELEARNEVKWETYTKKIQIEARVLGDLAMNHIIPVATQYQTDLINNVYKMQSLFPADKAARLSAKNLELIEEIADRTAFIKEHVDAMIEARKVANKIESEREKAIAYHDTIVPALEEIRYHIDKLELIVDNQMWTLPKYRELLFVR | soluble |
| MALEGLKTSCCRPNEPLTTNSMAIAQEKAQHQQRSSLRNMTRPMIGRSGPKEASMTTRTRRETIVFAHPFRLRGIDRELPAGAYDVITDEELIEGLSFPVFRRVATMITVPCAPPRQSAVEMLTIEPDALRDARQADSSTSRA | not soluble |
| MSLTRIKLIATDVDGTFLNQQRTYNHNRFAAQLNRLSSASIRFVVASGNHLGHLKDVFAPTPQVQTFVAENGGLIVDHNRTLAEAQLPLPVVREVVQAILADQTLRPQLLRLSGAHGTYLNRQDRSLDEASQDYFFNNLVRVDDLTQVNDTIYKINGEWPNDSIQTIAAKLNAHFPGLINATASGFGSIDIVAPHMNKAVGLTQLAATWHITPAEIAAFGDNDNDREMLAHVGLGVAMRNGTDSVKEVADLITPHDNNHEGVLDVIDTILADEGHHHHHH | soluble |
| MGSSHHHHHHGKTIFVIVPTNEEQVAFLEALAKQDELNFDWQNPPTEPGQPVVILIPSDMVEWFLEMLKAKGIPFTVYVEEGGSENLYFQGGGGGGGSEVEASPRVAMIVLEGFSGTVFHALMESGVHMPNIAHMLSSQKGVWAECATSSQSSCARAVVVENDTSGEVYVSAAAAMTSLFSGVSPREHQVYNGSLESMSMYANTSKMNPSIAKRVKDAGMKVSVVGTSHAINSLSIALGSCSRPGVLDMECAASREELLRASVDEYSGSVQLDCLASSSCNMDTRKMTSPTDPQQCSSGQAEAQFTRHLNSIFGGLAYSTQTQEAAMQNTVADNLDNSLFVFHFDALAVRAASTYLPDFQYNASSKEYVAQVYLLDALVGQVISYVRDRARSQKENWLIVGVSNHGGDDKPYAIPNPVSTSENTIAFFMATYTNNMKRFVTLAPLQRPVTQLDVLPTVLTWLNVVPFDAETSAVTAGTNTTAASPAVEARVMERRHFEGLVQGICSSGASLKNCAL | not soluble |
| MGSDKIHHHHHHMEKLQESMYQLIVETSTNLPNDVRRAIAEAKAKENAGTRAALSLSTITENIKMADENISPICQDTGMPTFEIKVPVGVNQIEMKKAIYAAIEQATKDGKLRPNSVDSLTGKNSGNNLGEGTPVIHFEQWEEDYIDARLILKGGGCENKNIQYSLPAELEGLGRAGRDLDGIRKCIMHSVYQAQGQGCSAGFIGVGIGGDRTTSYSLAKEQLFRKVDDVNPNDDLRKLEEYVLENANKLGIGTMGFGGEATLLGCKVGAMNRLPASFFVSVAYNCWAFRRLGVELDAETGEIKKWLYKDGERVDLNEVASQVAATAETTEVREVVLEAPVTEEQIRELKVGDVVIINGMLHTGRDAIHHHLMDHDAPIDLDGQIIYHCGPVMLQDDAGEWHVKAAGPTTSIREEPYQGDIMKKFGIRAVIGKGGMGPKTLKALQEHGGVYLNAIGGAAQYYADCIKKVKGVDLMEFGIPEAMWHLEVEGFAAIVTMDSHGNSLHEDVDKSSLEKLEQFAEKVF | not soluble |
| SEAQQKNYTFRCLQMSSFANRSWSRTDSVVWLGDLQTHRWSNDSATISFTKPWSQGKLSNQQWEKLQHMFQVYRVSFTRDIQELVKMMSPKEDYPIEIQLSAGCEMYPGNASESFLHVAFQGKYVVRFWGTSWQTVPGAPSWLDLPIKVLNADQGTSATVQMLLNDTCPLFVRGLLEAGKSDLEKQEKPVAWLSSVPSSAHGHRQLVCHVSGFYPKPVWVMWMRGDQEQQGTHRGDFLPNADETWYLQATLDVEAGEEAGLACRVKHSSLGGQDIILYWGSLHHILDAQKMVWNHRHHHHHH | soluble |
| MGSDKIHHHHHHMLEQSIEAFKACVNDWLSAIAQLGEKPNRGNLHRFAYRAIRDKYPQLHSNVVQDAMNLAIEIYRSWLKNGGEFPKFRSDVIYFKGVDVRIENNGLVVPLMGRRVYLPLYVPKKYKKYLQYKHGRVIIKRVDKDWYALVSVNVPEKEPIKPVGTIGVDLGYYNLLVASDEKGRVVMRVQGDILIRHKEHMERLTARRQERLMKKFGIYARTNHKDRRFVNDLNHKIAKALVLKAKQLNRAIVLEKLKGLKKQRRPKLLRKILHLWSYADLIAKIVYKAKLYGVPVIFVSPRGTSKTCSNCGYYVRTFKDDRVFRCPKCGFVADRDYNASINIAKKGLEELRKRTFLPTLKDEASSPQGW | not soluble |
| MSLRFGIGYSATMGVRPNMEDVITFQTYPNDQHLFGLFDGHQGNVAAATSAICLHNELLQNAVNAPDDQLPAAITNCYTAVNQKLKMIGTRDGCTAISAFIRKNKCYTVGIGDSRIVLVKKNSSKRLTVDYKPTMRSEYERLRKCGLTVNSEGRIGRKLAVARTLGDFWCEGPGLYVPPDVSSFEINEEEDLALIIACDGVWDVIQDDDAAEIVRNSENAQDAATTLRNVAFALGSKDNISAMIVFFDSKEGHHHHHH | soluble |
| MGSDKIHHHHHHMRDLLQRPDLFSINTATLGYKTPLPAIIDACAARGIGAIAPWRRELQGEDLQQITRQLAASNMSVSGLCRSTYYTAPTLAERKLAIDDNRRALDDAAVLNAACYMQVVGGLPTGTKDLYEAREQVKQGIRQLLPHSKDVGVPIALEPLHPMTAADRSCLCTLRQALDWCDELDPDGEFGLGVAVDVYHVWWDPDLASQILRAGKRILAFHVSDWLMPTTDLVNDRGMPGDGVINIPSIRRLVENAGFNGAIELEIFSPYWWQKDINSTGNDSNLLIVFYVQIMPDDLVMQLHRF | not soluble |
